# Results from patent publication US20020054882A1 (TAKARA SHUZO, published 2002).
# B1: monoclonal antibody C179 (antibody)
# chain 1: EVKLVESGGGLVQPGGSLRLSCGTSGFTLTDDYMTWVRQPPGKALEWLGFIRDRANGYTTEYSASVKGRFTISRDNSQSIVYLQMNTLRVEDSATYYCARPKGYFPYAMDYWGQGT
# chain 2: DIQMTQSPASQSASLGESVTITCLASQTIGTWLAWYQQKPGKSPQLLIYAATSLADGVPSRFSGSGSGTKFSFKISSLQAEDFVSYYCQQLYSTPW
# Tests used:
# Assay in all cases: cell-based or functional assay
# [1] = target: HA molecule of A/Izumi/5/65 (H2N2) (influenza A virus A/Izumi/5/65 (H2N2))
# [2] = target: HA molecule of A2/Aichi/2/68 (H3N2) (influenza A virus A2/Aichi/2/68 (H3N2))
# [3] = target: HA molecule of A/Suita/1/90 (H3N2) (influenza A virus A/Suita/1/90 (H3N2))
# [4] = target: HA molecule of A/Adachi/2/57 (H2N2) (influenza A virus A/Adachi/2/57 (H2N2))
# [5] = target: HA molecule of A/Kumamoto/1/65 (H2N2) (influenza A virus A/Kumamoto/1/65 (H2N2))
# [6] = target: HA molecule of A/Yamagata/120/86 (H1N1) (influenza A virus A/Yamagata/120/86 (H1N1))
# [7] = target: HA molecule of A/Osaka/930/88 (H1N1) (influenza A virus A/Osaka/930/88 (H1N1))
# [8] = target: HA molecule of A/Sichuan/2/87 (H3N2) (influenza A virus A/Sichuan/2/87 (H3N2))
# [9] = target: HA molecule of A/Fukuoka/C29/85 (H3N2) (influenza A virus A/Fukuoka/C29/85 (H3N2))
# [10] = target: HA molecule of A/Kitakyushu/159/93 (H3N2) (influenza A virus A/Kitakyushu/159/93 (H3N2))
# [11] = target: HA molecule of A/Ibaraki/1/90 (H3N2) (influenza A virus A/Ibaraki/1/90 (H3N2))
# [12] = target: HA molecule of influenza B virus strain B/Nagasaki/1/87 (influenza B virus B/Nagasaki/1/87)
# [13] = target: HA molecule of A/Kaizuka/2/65 (H2N2) (influenza A virus A/Kaizuka/2/65 (H2N2))
# [14] = target: HA molecule of A1/FM/1/47 (H1N1) (influenza A virus A1/FM/1/47 (H1N1))
# [15] = target: HA molecule of A/Bangkok/10/83 (H1N1) (influenza A virus A/Bangkok/10/83 (H1N1))
# [16] = target: HA molecule of A/PR/8/34 (H1N1) (influenza A virus A/PR/8/34 (H1N1), UniProt P03452 18-565)
# Chain of HA molecule of A/PR/8/34 (H1N1) (P03452 18-565): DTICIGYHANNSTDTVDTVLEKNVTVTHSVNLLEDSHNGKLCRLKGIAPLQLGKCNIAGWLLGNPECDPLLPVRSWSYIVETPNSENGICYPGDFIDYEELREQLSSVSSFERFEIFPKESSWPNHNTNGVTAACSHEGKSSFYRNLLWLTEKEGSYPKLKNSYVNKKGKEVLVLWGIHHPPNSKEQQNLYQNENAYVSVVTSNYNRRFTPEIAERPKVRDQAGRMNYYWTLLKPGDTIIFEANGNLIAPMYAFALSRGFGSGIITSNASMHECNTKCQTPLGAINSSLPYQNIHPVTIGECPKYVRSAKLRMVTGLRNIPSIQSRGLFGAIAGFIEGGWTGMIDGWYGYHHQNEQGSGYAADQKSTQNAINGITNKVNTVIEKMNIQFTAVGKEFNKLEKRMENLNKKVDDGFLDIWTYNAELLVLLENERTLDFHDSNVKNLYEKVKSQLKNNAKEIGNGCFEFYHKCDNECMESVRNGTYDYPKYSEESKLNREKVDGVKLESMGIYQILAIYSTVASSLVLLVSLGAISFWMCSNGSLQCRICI
molecule,measurement,setting,value
monoclonal antibody C179,HI (hemagglutination inhibition test) (dilution ratio of ascites fluid),[1],< 32
same,HI (hemagglutination inhibition test) (dilution ratio of ascites fluid),[2],< 32
same,HI (hemagglutination inhibition test) (dilution ratio of ascites fluid),[3],< 32
same,HI (hemagglutination inhibition test) (dilution ratio of ascites fluid),[4],< 32
same,HI (hemagglutination inhibition test) (dilution ratio of ascites fluid),[5],< 32
same,HI (hemagglutination inhibition test) (dilution ratio of ascites fluid),[6],< 32
same,HI (hemagglutination inhibition test) (dilution ratio of ascites fluid),[7],< 32
same,HI (hemagglutination inhibition test) (dilution ratio of ascites fluid),[8],< 32
same,HI (hemagglutination inhibition test) (dilution ratio of ascites fluid),[9],< 32
same,HI (hemagglutination inhibition test) (dilution ratio of ascites fluid),[10],< 32
same,HI (hemagglutination inhibition test) (dilution ratio of ascites fluid),[11],< 32
same,HI (hemagglutination inhibition test) (dilution ratio of ascites fluid),[12],< 32
same,HI (hemagglutination inhibition test) (dilution ratio of ascites fluid),[13],< 32
same,HI (hemagglutination inhibition test) (dilution ratio of ascites fluid),[14],< 32
same,HI (hemagglutination inhibition test) (dilution ratio of ascites fluid),[15],< 32
B1,HI (hemagglutination inhibition test),[16],< 32 dilution ratio of ascites fluid
